{"source": "patent US20250011413A1", "about": "(MCMASTER UNIVERSITY, published 2025)", "binders": {"B1": {"name": "Mutant C scFv, scFv(S50N, Y53H) (scFv)", "scFv": "DIQMIQSQKFMSTSVGDRVTVTCKASQNVGTNVAWYQQKPGQSPNALIYNASHRYSGVPDRFTGSGSGTDFTLTITNVQSEDLADYFCQQYNSYPLTFGTGTKLDLKGGGGSGGGGSGGGGSVQLQQSGAELVKPGASVKLSCKASGYTFTNYFIYWVKQRPGQGLEWIGEINPRNGDTDFNEKFESRATLTVDKSSSTAYMQLSSLTSEDSAIYYCTRSPYGNNYGFTYWGQGTLVTVSA", "notes": "VL-linker-VH; histidine-tagged, from E. coli BL21; also called Mut C; not shown: histidine tag from the pADL-22c vector"}}, "key": {"[1]": {"biological_target": "T1, PF4/heparin complex (human PF4 complexed with heparin) (human, UniProt P02776 32-101)", "T1 sequence": "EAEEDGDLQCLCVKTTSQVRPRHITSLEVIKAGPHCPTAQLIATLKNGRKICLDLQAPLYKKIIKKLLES", "assay": "cell-based or functional assay"}, "[2]": {"biological_target": "T1, PF4/heparin complex (human PF4 …)", "assay": "BLI (Octet), biotinylated PF4/heparin on streptavidin sensors, scFv 1 µg/mL", "method": "(§1) The Octet-QK Red 96 (FortéBio, Menlo Park, CA) instrumentation was used to conduct all BLI experiments. A 96-well microtiter plate (black, flat-bottom) was used to hold 200 μL per well of either sample or buffer. Pre-coated streptavidin biosensor tips (FortéBio) were hydrated in phosphate buffered saline (PBS) containing 1% bovine serum albumin (BSA, Sigma-Aldrich) before performing all kinetic assays. Each step was performed at an operating temperature of 23° C. with agitation at 1000 rpm. Streptavidin tips were first equilibrated in PBS+1% BSA to establish a baseline. […] The PF4-coated tips were then dipped into PBS+1% BSA for 13 minutes to re-establish a baseline. Tips were then incubated in an analyte solution containing half-fold dilutions of wildtype scFv (4.0, 2.0, 1.0, 0.5, 0.25 μg/mL in PBS+1% BSA) for 10 minutes to measure association. For mutant scFv association, tips were incubated in an analyte solution containing 200 μL of each mutant and wildtype scFv at a final concentration of 1 μg/mL in PBS+1% BSA. Antibody dissociation steps were performed by dipping sensors in wells containing PBS+1% BSA for 56 minutes. The following negative controls included in these kinetic experiments were also measured: 200 μL of buffer to replace both the antigen and scFv and 200 μL buffer replacing scFv only. Each experiment was performed with PF4 or with PF4/heparin as the immobilized antigen.\n(§2) BLI experiments were performed to evaluate binding responses and affinities of wildtype and mutant scFv. Biotinylated PF4 alone or complexed with heparin was immobilized on streptavidin biosensors and used to capture wildtype scFv. Half-fold serial dilutions of wildtype scFv ranging from 0.25 μg/mL to 4 μg/mL were used to determine the optimal concentrations for future experiments PF4 (PF4 FIG. 3; PF4/heparin FIG. 4)."}, "[3]": {"biological_target": "T1, PF4/heparin complex (human PF4 …)", "assay": "competition EIA, scFv 50 µg/mL; competitor HIT-negative sera antibodies, n=10", "method": "(§3) Inhibitory PF4/heparin IgG-specific Streptavidin Enzyme Immunoassay (EIA). The binding activity of wildtype and mutant scFv antibodies to PF4/heparin complexes was measured using an inhibitory PF4/heparin IgG-specific EIA with a streptavidin-biotin capture system. Before performing this protocol, 96-well NUNC Maxisorp plates (ThermoFisher) were coated with 10 μg/mL streptavidin for 24 h. Plates were then blocked with 3% bovine serum albumin (BSA) in phosphate buffered saline (PBS) for 2 h at room temperature. Plates were then coated with 1 U/mL biotinylated-heparin for 1 h followed by 30 μg/mL PF4 for 1 h. Increasing concentrations of wildtype or mutant scFv were added and incubated for 1 hr at room temperature. Without removing wildtype or scFv, HIT patient sera in a 1:50 dilution or full-length KKO (2 μg/mL) was then incubated for 1 h at room temperature. After washing, alkaline phosphatase-conjugated anti-human or anti-mouse IgG (Jackson Immuno Research Laboratories, Inc., West Grove, PA) was added at a 1:4000 dilution and incubated for 1 h temperature. For detection, 1 mg/mL p-nitrophenylphosphate (PNPP, Sigma-Aldrich) substrate dissolved in 1 mol/L diethanolamine (DEA) buffer (pH 9.6) was added. The optical density (OD) was measured at 2 min intervals for 30 min at 405 nm (OD₄₀₅ₙₘ) using a BioTek 800 TS plate reader (BioTek Instruments Inc., Winooski, VT) to determine if anti-PF4/heparin antibody binding was inhibited. Results were reported as a decrease in OD (absorbance at 405 nm) from baseline levels.\nSera (n=10) from confirmed HIT-negative patients (EIA-positive/SRA-negative) containing anti-PF4/heparin antibodies were then used in the same EIA with scFv constructs to determine if antibody binding was decreased in this cohort (Table 5)."}, "[4]": {"biological_target": "T1, PF4/heparin complex (human PF4 …)", "assay": "competition EIA, scFv 50 µg/mL; competitor HIT-positive sera antibodies, n=10", "method": "as §3\nInhibiting HIT-Positive (EIA+/SRA+) HIT-Negative (EIA+/SRA−) antibody binding: Sera (n=10) from confirmed HIT-positive patients (EIA-positive/SRA-positive) containing anti-PF4/heparin antibodies were used in a modified streptavidin-biotin based anti-PF4/heparin IgG EIA (streptavidin anti-PF4/hep EIA) with scFv at 50 μg/mL. On average, antibody binding to PF4/heparin was reduced in the presence of scFv."}, "[5]": {"biological_target": "T1, PF4/heparin complex (human PF4 …)", "assay": "competition EIA, scFv 50 µg/mL; competitor HIT-negative sera antibodies, n=10", "remark": "listed apart in the source"}, "[6]": {"biological_target": "T1, PF4/heparin complex (human PF4 …)", "assay": "competition EIA, scFv 50 µg/mL; competitor HIT-positive sera antibodies, n=10", "remark": "listed apart in the source"}, "[7]": {"biological_target": "T2, Human PF4 (CXCL4), biotinylated, without heparin (human, UniProt P02776 32-101, biotinylated with EZ-link-Sulfo-NHS-LC-Biotin (sites not given))", "T2 construct": "Immobilised on streptavidin biosensors for BLI; also called PF4 alone; platelet factor 4", "T2 sequence": "T1 sequence", "assay": "BLI (Octet), biotinylated PF4 without heparin on streptavidin sensors, scFv 1 µg/mL", "method": "as §1, §2"}, "[8]": {"biological_target": "T1, PF4/heparin complex (human PF4 …)", "assay": "BLI (Octet), biotinylated PF4/heparin on streptavidin sensors, scFv 1 µg/mL, 1:1 model", "method": "as §1, §2"}, "[9]": {"biological_target": "T2, Human PF4 (CXCL4), biotinylated, …", "assay": "BLI (Octet), biotinylated PF4 without heparin on streptavidin sensors, scFv 1 µg/mL, 1:1 model", "method": "as §1, §2"}, "[10]": {"biological_target": "T1, PF4/heparin complex (human PF4 …)", "assay": "BLI (Octet), biotinylated PF4/heparin on streptavidin sensors, scFv at 1 µg/mL, 1:1 model, mean ± s.d.", "method": "(§4) BLI experiments were performed using wildtype scFv, mutant B, mutant C, mutant D, mutant E, and mutant F at 1 μg/mL. Binding was measured against immobilized biotinylated PF4/heparin complexes on streptavidin biosensors. b) Table showing kinetic data of wildtype and mutant scFv, including binding responses and association and dissociation rates. All data was analyzed based on a 1:1 homogenous ligand binding model using Octet®) User Software version 3.1.\nas §1\n(§5) BLI experiments were performed to evaluate binding responses and affinities of wildtype and mutant scFv. Biotinylated PF4 alone or complexed with heparin was immobilized on streptavidin biosensors and used to capture wildtype scFv."}, "[11]": {"biological_target": "T2, Human PF4 (CXCL4), biotinylated, …", "assay": "BLI (Octet), biotinylated PF4 without heparin on streptavidin sensors, scFv at 1 µg/mL, 1:1 model, mean ± s.d. [cont.) b]", "method": "as §4, with “PF4” for “PF4/heparin complexes”, “Octet®” for “Octet®)”\nas §1, §5"}}, "data": [{"binder": "B1", "values": [{"measurement": "% inhibition of 14C-serotonin release (SRA), HIT-Positive Patient #1 serum, scFv 50 µg/mL", "setting": "[1]", "result": 14.4, "unit": "%"}, {"measurement": "% inhibition of 14C-serotonin release (SRA), HIT-Positive Patient #1 serum, scFv 75 µg/mL", "setting": "[1]", "result": 22.2, "unit": "%"}, {"measurement": "% inhibition of 14C-serotonin release (SRA), HIT-Positive Patient #2 serum, scFv 50 µg/mL", "setting": "[1]", "result": 15.4, "unit": "%"}, {"measurement": "% inhibition of 14C-serotonin release (SRA), HIT-Positive Patient #2 serum, scFv 75 µg/mL", "setting": "[1]", "result": 21.8, "unit": "%"}, {"measurement": "% inhibition of 14C-serotonin release (SRA), HIT-Positive Patient #3 serum, scFv 50 µg/mL", "setting": "[1]", "result": -1.2, "unit": "%"}, {"measurement": "% inhibition of 14C-serotonin release (SRA), HIT-Positive Patient #3 serum, scFv 75 µg/mL", "setting": "[1]", "result": 9.6, "unit": "%"}, {"measurement": "% inhibition of 14C-serotonin release (SRA), HIT-Positive Patient #4 serum, scFv 50 µg/mL", "setting": "[1]", "result": 3.3, "unit": "%"}, {"measurement": "% inhibition of 14C-serotonin release (SRA), HIT-Positive Patient #4 serum, scFv 75 µg/mL", "setting": "[1]", "result": 5.6, "unit": "%"}, {"measurement": "% inhibition of 14C-serotonin release (SRA), HIT-Positive Patient #5 serum, scFv 50 µg/mL", "setting": "[1]", "result": 22.2, "unit": "%"}, {"measurement": "% inhibition of 14C-serotonin release (SRA), HIT-Positive Patient #5 serum, scFv 75 µg/mL", "setting": "[1]", "result": 6.9, "unit": "%"}, {"measurement": "average binding response (wavelength shift)", "setting": "[2]", "result": 0.159, "unit": "nm"}, {"measurement": "fold higher binding response than wildtype scFv", "setting": "[2]", "result": 2, "unit": "fold"}, {"measurement": "mean OD405nm of bound serum IgG (+ scFv)", "setting": "[3]", "result": 1.24, "unit": "OD405nm"}, {"measurement": "mean OD405nm of bound serum IgG (+ scFv)", "setting": "[4]", "result": 0.799, "unit": "OD405nm"}, {"measurement": "mean % inhibition of serum antibody binding", "setting": "[5]", "result": -42.5, "unit": "%"}, {"measurement": "mean % inhibition of serum antibody binding", "setting": "[6]", "result": 50.6, "unit": "%"}, {"measurement": "average binding response (wavelength shift)", "setting": "[7]", "result": 0.0399, "unit": "nm"}, {"measurement": "Kd", "setting": "[8]", "result": 3.81, "unit": "nM"}, {"measurement": "fold increased affinity against wildtype scFv", "setting": "[8]", "result": 10, "unit": "fold"}, {"measurement": "Kd", "setting": "[9]", "result": 1660, "unit": "nM"}, {"measurement": "koff", "setting": "[10]", "result": 0.000477, "unit": "s⁻¹"}, {"measurement": "kon", "setting": "[10]", "result": 85800, "unit": "M⁻¹ s⁻¹"}, {"measurement": "koff", "setting": "[11]", "result": 0.000215, "unit": "s⁻¹"}, {"measurement": "kon", "setting": "[11]", "result": 16900, "unit": "M⁻¹ s⁻¹"}]}]}
